From patent US20150098990A1

Assays:
[1] = target: mouse dorsal root ganglion (DRG) neurons (surface proteins that the peptides bind are not identified) (mouse (C57BL/6)); experiment: double staining of isolated DRG neurons incubated with DRG-p1 and GST-DRG3, antibodies against phage and GST
[2] = target: mouse dorsal root ganglion (DRG) neurons (surface proteins that the peptides bind are not identified) (mouse (C57BL/6)); experiment: phage binding to cultured DRG neurons, anti-fd immunostaining, confocal microscopy
[3] = target: mouse dorsal root ganglion (DRG) neurons (surface proteins that the peptides bind are not identified) (mouse (C57BL/6)); experiment: synthetic peptide DRG2 at 10^-4 M; competitor phage DRG-p2 on cultured DRG neurons, anti-fd immunostaining
[4] = target: mouse dorsal root ganglion (DRG) neurons (surface proteins that the peptides bind are not identified) (mouse (C57BL/6)); experiment: synthetic peptide DRG2 at 10^-6 M; competitor phage DRG-p2 on cultured DRG neurons, anti-fd immunostaining
[5] = target: mouse dorsal root ganglion (DRG) neurons (surface proteins that the peptides bind are not identified) (mouse (C57BL/6)); experiment: synthetic peptide DRG3 at 10^-6 M; competitor phage DRG-p3 on cultured DRG neurons, anti-fd immunostaining
[6] = target: mouse dorsal root ganglion (DRG) neurons (surface proteins that the peptides bind are not identified) (mouse (C57BL/6)); experiment: synthetic peptide DRG3 at 10^-4 M; competitor phage DRG-p3 on cultured DRG neurons, anti-fd immunostaining
[7] = target: mouse dorsal root ganglion (DRG) neurons (surface proteins that the peptides bind are not identified) (mouse (C57BL/6)); experiment: synthetic peptide DRG1 at 10^-4 M; competitor phage DRG-p1 on cultured DRG neurons, anti-fd immunostaining
[8] = target: mouse dorsal root ganglion (DRG) neurons (surface proteins that the peptides bind are not identified) (mouse (C57BL/6)); experiment: synthetic peptide DRG1 at 10^-6 M; competitor phage DRG-p1 on cultured DRG neurons, anti-fd immunostaining

Molecule: phage clone DRG-p1 (M13 phage displaying the DRG1 peptide SPGARAF on pIII)
- percent of GST-DRG3-positive neurons with double positive staining [1]: 71%
- percent of DRG neurons bound [2]: 38%

Molecule: phage clone DRG-p2 (M13 phage displaying the DRG2 peptide DGPWRKM on pIII)
- percent of DRG neurons bound [2]: 43%

Molecule: phage clone DRG-p3 (M13 phage displaying the DRG3 peptide FGQKASS on pIII)
- percent of DRG neurons bound [2]: 29%

B1: synthetic peptide DRG2: DGPWRKM (peptide)
peptide: DGPWRKM
- percent of anti-phage staining blocked [3]: 94%
- percent of anti-phage staining blocked [4]: 54%

B2: synthetic peptide DRG3: FGQKASS (peptide)
peptide: FGQKASS
- percent of anti-phage staining blocked [5]: 53%
- percent of anti-phage staining blocked [6]: 94%

B3: synthetic peptide DRG1: SPGARAF (peptide)
peptide: SPGARAF
- percent of anti-phage staining blocked [7]: 97%
- percent of anti-phage staining blocked [8]: 47%
